Source: the supplement of paper PMC10065799, “High-throughput profiling of sequence recognition by tyrosine kinases and SH2 domains using bacterial peptide display” (eLife, 2023)

Key:
c-Abl (mouse) = assay: phosphorylation enrichment, bacterial display (enrichment ratio); higher = better substrate or ligand; peptides without Tyr show the background
c-Src = assay: as above
Hck = Hck (UniProt P08631); assay: as above
Fer (mouse) = assay: as above
FGFR1 = FGFR1 (UniProt P11362); assay: as above
FGFR3 = FGFR3 (UniProt P22607); assay: as above
Jak2 = Jak2 (UniProt O60674); assay: as above
Fyn = Fyn (UniProt P06241); assay: as above
EPHB2 = EPHB2 (UniProt P29323); assay: as above
EPHB1 = EPHB1 (UniProt P54762); assay: as above
Fes = Fes (UniProt P07332); assay: as above
AncSZ = assay: as above
MERTK = MERTK (UniProt Q12866); assay: as above
SHP2-C SH2 = assay: SH2 binding enrichment of the phosphorylated peptide, bacterial display (enrichment ratio); higher = better substrate or ligand; peptides without Tyr show the background
c-Src SH2 = assay: as above
Grb2 SH2 = Grb2 SH2 (UniProt P62993); assay: as above
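For SH2 binding enrichment of the phosphorylated peptide, bacterial display in this document: peptide library displayed on the E. coli surface as eCPX fusions, selected cells deep-sequenced, score is each peptide's frequency after selection divided by its frequency in the input.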
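For phosphorylation enrichment, bacterial display in this document: 11-residue human phosphosite peptides and single-mutation variants displayed on the E. coli surface, counted by deep sequencing, each peptide's frequency after selection divided by its frequency in the unselected input library; frequency after pTyr selection over input frequency; kinase dosed for 20-30% of maximal phosphorylation in three min.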

FGFR1, sequence (P11362 whole entry, looked up): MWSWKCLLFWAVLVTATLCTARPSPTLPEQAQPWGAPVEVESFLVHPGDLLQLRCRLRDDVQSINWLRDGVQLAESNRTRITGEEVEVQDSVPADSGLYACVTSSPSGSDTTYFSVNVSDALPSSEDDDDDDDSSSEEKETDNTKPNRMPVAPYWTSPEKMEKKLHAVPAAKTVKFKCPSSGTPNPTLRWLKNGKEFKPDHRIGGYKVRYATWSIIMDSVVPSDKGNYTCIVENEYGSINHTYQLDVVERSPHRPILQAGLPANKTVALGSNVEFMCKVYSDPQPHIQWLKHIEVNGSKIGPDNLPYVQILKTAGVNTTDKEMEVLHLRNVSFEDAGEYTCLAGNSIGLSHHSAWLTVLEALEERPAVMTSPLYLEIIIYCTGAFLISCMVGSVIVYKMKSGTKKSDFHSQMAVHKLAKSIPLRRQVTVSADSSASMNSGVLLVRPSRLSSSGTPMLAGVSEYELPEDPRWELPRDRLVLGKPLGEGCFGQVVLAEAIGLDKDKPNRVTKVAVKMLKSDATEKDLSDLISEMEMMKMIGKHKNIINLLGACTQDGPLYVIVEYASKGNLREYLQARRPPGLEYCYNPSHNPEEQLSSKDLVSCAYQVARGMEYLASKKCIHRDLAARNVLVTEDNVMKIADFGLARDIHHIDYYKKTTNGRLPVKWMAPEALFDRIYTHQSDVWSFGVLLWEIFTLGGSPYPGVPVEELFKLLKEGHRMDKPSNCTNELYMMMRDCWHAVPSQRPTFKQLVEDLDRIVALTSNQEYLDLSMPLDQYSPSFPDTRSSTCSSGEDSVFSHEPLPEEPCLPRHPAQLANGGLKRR
EPHB2, sequence (P29323 whole entry, looked up): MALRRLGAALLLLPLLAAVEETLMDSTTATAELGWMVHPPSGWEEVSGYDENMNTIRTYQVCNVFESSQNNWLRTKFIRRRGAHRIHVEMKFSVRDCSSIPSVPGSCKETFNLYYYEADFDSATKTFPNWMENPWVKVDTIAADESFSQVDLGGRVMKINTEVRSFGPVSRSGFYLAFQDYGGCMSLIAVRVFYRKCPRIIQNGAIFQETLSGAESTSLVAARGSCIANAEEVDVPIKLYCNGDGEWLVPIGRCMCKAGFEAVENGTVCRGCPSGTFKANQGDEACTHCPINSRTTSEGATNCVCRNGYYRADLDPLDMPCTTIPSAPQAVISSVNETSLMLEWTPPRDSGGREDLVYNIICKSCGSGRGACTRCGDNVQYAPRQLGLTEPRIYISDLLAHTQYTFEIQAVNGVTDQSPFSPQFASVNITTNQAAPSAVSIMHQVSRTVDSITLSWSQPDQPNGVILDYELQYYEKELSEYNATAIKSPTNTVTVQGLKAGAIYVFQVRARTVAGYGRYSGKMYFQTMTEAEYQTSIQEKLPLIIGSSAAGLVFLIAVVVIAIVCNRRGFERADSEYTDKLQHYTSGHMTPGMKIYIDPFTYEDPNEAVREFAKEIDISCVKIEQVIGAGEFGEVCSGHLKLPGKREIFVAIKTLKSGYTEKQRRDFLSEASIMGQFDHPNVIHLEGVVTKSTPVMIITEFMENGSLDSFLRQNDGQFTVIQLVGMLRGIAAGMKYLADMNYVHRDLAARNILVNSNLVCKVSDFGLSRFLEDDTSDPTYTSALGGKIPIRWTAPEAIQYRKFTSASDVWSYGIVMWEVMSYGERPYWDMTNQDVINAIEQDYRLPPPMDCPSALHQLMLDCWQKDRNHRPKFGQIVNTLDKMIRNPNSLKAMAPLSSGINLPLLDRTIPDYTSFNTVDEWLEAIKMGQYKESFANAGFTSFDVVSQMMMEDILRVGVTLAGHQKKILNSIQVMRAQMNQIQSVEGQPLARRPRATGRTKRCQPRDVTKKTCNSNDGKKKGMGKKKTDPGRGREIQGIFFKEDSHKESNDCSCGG
MERTK, sequence (Q12866 whole entry, looked up): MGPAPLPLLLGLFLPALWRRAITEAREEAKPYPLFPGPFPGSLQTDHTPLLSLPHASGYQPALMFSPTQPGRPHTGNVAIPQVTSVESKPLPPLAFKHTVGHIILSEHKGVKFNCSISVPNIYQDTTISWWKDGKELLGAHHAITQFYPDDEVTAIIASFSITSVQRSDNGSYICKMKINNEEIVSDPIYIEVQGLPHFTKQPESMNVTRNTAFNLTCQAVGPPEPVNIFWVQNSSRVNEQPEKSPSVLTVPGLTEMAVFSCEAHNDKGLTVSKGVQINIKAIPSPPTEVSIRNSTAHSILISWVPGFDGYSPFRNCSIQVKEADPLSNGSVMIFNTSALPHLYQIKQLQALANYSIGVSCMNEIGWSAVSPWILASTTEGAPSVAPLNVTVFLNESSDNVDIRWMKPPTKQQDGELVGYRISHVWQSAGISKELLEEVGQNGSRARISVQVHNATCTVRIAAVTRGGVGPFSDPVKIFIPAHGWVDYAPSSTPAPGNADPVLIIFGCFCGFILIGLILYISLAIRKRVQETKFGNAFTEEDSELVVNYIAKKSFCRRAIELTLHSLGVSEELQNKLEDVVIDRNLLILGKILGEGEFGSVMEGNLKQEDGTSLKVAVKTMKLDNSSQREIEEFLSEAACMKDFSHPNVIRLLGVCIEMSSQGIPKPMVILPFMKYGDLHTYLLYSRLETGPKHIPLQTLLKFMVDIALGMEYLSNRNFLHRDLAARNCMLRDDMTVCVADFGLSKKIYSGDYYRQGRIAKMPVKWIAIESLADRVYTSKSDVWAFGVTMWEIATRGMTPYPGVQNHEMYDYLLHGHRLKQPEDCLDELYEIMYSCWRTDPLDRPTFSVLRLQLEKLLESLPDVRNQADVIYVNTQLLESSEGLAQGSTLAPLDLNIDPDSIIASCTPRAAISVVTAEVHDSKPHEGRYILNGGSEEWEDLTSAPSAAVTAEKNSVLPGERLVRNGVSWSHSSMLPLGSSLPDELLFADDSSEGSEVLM
Fes, sequence (P07332 whole entry, looked up): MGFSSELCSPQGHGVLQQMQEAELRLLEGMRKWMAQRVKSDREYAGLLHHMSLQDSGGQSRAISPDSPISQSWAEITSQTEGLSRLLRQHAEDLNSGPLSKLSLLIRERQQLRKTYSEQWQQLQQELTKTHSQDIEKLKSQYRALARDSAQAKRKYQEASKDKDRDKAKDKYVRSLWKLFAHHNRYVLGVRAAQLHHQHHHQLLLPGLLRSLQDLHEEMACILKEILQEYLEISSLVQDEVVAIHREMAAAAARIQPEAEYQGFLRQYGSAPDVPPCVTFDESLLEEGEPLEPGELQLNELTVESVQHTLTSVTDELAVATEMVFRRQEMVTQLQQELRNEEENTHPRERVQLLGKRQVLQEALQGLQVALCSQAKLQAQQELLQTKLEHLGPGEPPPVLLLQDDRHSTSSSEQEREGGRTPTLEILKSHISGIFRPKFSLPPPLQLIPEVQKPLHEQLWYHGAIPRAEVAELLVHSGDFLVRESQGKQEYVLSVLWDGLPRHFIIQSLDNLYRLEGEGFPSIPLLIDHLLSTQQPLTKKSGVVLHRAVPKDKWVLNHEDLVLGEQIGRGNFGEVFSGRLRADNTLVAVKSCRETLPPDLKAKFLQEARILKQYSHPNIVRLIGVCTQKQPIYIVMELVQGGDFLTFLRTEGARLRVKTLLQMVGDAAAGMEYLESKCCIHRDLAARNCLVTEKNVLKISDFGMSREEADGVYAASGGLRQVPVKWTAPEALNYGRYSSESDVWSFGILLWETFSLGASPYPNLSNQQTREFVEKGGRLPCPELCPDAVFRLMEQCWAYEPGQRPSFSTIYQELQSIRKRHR
Hck, sequence (P08631 whole entry, looked up): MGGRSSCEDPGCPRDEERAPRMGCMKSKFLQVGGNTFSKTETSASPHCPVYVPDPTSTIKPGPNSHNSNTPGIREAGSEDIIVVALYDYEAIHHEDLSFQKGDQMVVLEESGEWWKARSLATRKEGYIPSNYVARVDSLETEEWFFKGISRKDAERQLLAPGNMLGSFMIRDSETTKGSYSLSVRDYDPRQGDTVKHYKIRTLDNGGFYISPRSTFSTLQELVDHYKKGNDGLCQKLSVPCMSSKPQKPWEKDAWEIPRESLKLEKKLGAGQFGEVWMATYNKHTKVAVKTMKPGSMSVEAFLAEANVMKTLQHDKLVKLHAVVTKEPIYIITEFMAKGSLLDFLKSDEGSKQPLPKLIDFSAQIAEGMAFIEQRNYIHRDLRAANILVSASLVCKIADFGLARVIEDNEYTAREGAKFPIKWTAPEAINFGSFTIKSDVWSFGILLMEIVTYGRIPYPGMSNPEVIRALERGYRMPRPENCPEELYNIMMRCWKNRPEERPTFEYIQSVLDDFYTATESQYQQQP
FGFR3, sequence (P22607 whole entry, looked up): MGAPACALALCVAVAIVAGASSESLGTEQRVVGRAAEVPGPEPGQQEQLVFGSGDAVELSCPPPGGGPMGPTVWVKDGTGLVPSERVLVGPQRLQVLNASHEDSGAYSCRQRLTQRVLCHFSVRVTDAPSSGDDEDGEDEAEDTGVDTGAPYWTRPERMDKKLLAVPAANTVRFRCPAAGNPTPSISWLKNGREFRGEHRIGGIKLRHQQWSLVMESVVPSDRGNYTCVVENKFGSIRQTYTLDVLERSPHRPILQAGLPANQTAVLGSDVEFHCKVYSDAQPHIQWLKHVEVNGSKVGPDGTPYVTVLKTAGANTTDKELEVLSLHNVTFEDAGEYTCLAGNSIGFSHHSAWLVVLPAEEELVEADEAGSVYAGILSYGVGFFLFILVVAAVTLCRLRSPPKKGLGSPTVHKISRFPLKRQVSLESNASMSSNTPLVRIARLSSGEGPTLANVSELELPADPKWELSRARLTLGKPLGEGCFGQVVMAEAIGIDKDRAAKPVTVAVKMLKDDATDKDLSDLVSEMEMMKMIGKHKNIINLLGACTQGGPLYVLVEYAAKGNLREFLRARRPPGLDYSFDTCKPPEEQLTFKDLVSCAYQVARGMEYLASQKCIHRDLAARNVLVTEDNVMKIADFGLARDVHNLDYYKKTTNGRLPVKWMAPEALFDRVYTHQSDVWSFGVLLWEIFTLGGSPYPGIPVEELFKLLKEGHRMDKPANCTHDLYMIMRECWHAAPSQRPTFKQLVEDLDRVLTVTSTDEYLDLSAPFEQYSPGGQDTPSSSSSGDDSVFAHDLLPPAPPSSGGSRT

Row | SH2 binding enrichment (SHP2-C SH2) | SH2 binding enrichment (c-Src SH2) | SH2 binding enrichment (Grb2 SH2) | Sequence | phosphorylation enrichment (c-Abl (mouse)) | phosphorylation enrichment (c-Src) | phosphorylation enrichment (Hck) | phosphorylation enrichment (Fer (mouse)) | phosphorylation enrichment (FGFR1) | phosphorylation enrichment (FGFR3) | phosphorylation enrichment (Jak2) | phosphorylation enrichment (Fyn) | phosphorylation enrichment (EPHB2) | phosphorylation enrichment (EPHB1) | phosphorylation enrichment (Fes) | phosphorylation enrichment (AncSZ) | phosphorylation enrichment (MERTK)
1 | 0.721 | 0.293 | 0.443 | RFVTRHIFNRE [HLA-DQB1_Y62_Y62H_YF] | 0.719 | 0.62 | 0.431 | 0.43 | 0.584 | 0.658 | 0.766 | 0.651 | 0.314 | 0.482 | 1.12 | 0.843 | 0.583
2 | 1.69 | 1.62 | 1.67 | PLRAYYLIARV [HLCS_Y635_D634Y] | 0.865 | 0.362 | 0.415 | 0.732 | 1.2 | 1.31 | 1.71 | 0.571 | 0.726 | 0.543 | 1.12 | 1.17 | 0.636
3 | 0.501 | 0.33 | 0.712 | RRGMPYGGLGD [TGM1_Y312_R315L] | 0.66 | 0.398 | 0.391 | 0.456 | 0.445 | 0.443 | 0.352 | 0.503 | 0.536 | 0.302 | 0.663 | 0.618 | 1.02
4 | 0.462 | 0.382 | 0.908 | FENGEYIIRQG [PRKG1_Y247_YF] | 0.653 | 0.591 | 0.565 | 0.557 | 0.499 | 0.69 | 0.92 | 0.572 | 0.464 | 0.543 | 1.07 | 1.01 | 0.427
5 | 1.45 | 1.08 | 1.53 | HSKGIYFVQLE [MGAT4B_Y262_Q257H_YF] | 1.31 | 1.65 | 1.12 | 0.711 | 1.38 | 1.75 | 2.27 | 1.03 | 0.911 | 0.853 | 2.53 | 1.87 | 3.31
6 | 0.743 | 0.506 | 0.782 | ALAQKYHGGGG [HBB_Y146_H144Q] | 0.592 | 0.404 | 0.368 | 0.296 | 0.348 | 0.497 | 0.462 | 0.335 | 0.366 | 0.372 | 0.491 | 0.492 | 0.363
7 | 0.838 | 0.451 | 0.885 | LDPIQYSKHPP [SQSTM1_Y433_T430P] | 0.448 | 0.303 | 0.795 | 0.634 | 0.624 | 0.828 | 0.481 | 0.472 | 0.588 | 0.473 | 0.663 | 0.691 | 0.384
8 | 0.581 | 0.417 | 0.679 | WNDPDYMDSRR [GAA_Y407_L405P] | 0.614 | 0.453 | 0.472 | 0.432 | 0.553 | 0.727 | 0.779 | 0.493 | 0.687 | 0.989 | 1 | 1.46 | 0.351
